Laboratory results as given in patent publication US20210246218A1 (LYVGEN BIOPHARMA SUZHOU, published 2021).
Where “and” joins values, the source holds several entries; their conditions need not be identical. Equal values may be shown once.

Tests used:
[1] = target: T1, cynomolgus monkey CD137 on cells (cynomolgus monkey, UniProt A9YYE7 24-254); test: flow cytometry, cellular CD137; cynomolgus monkey CD137
T1 construct: whole, on cells; also called CHO-cynomolgus monkey CD137
Description: (§1) CHO cells over-expressing human or cynomolgus monkey CD137 and CHO parental cells were harvested by centrifugation at 1000 g for 3 minutes. The cells were resuspended in ice cold assay buffer at 2*10\hat{ }6/mL and transferred to 96-well V-bottom plate with 100 μL/well. […] The plate was mixed and incubated in the dark for 2 hours at 4° C. The cells were washed 3 times by centrifugation at 1000 g for 3 min and resuspended in ice cold assay buffer containing goat F(ab′)₂ anti-human IgG-Fc (PE), 100 μL/well. The plate was incubated in the dark for another 1 hour at 4° C. The cells were washed 2 times by centrifugation at 1000 g for 3 min and resuspended in ice cold assay buffer containing 2% PFA. The cells were then subjected to the flow cytometer immediately.
(§2) Mean fluorescence intensity (MFI) was calculated from the total cell population in the FCM experiments. Graphpad 7.0, “[Agonist] vs. response—Variable slope (four parameters)” was used to plot the binding MFI in dose response and to calculate FCM binding EC₅₀ values.

[2] = target: T1, cynomolgus monkey CD137 on cells; test: flow cytometry on CHO cells over-expressing cynomolgus CD137; average, n=6
Description: as §1, §2

Ly050 = target: T2, Ly050; test: ELISA, CD137 protein coated, clone 3712 titrated; full sigmoid, plateau about 1.9
T2 chain: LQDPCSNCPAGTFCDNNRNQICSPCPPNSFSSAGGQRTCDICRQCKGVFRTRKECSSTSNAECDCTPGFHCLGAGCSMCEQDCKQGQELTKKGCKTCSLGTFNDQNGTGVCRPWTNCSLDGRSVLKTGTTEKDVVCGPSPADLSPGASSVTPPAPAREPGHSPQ
Description: (§3) For the data shown in FIGS. 16C-D, chimeric CD137 receptor protein samples were diluted in DPBS to 5 μg/mL and then coated onto an ELISA plate (Corning, Catalog number: 9018, high binding) at 50 μL (0.25 μg) per well, and incubated at 4° C. overnight. The plate was decanted and washed once; assay diluent was added at 200 μL/well. After a 1-hour incubation at room temperature, the plate was washed with PBST one time. […] The plate was incubated 1 hour at room temperature and then washed three times with PBST. Goat anti-human IgG-H+L HRP-conjugated at 1:100,000 dilution or goat anti-mouse IgG (H+L) secondary antibody, HRP, 10 at 1:50,000 dilution was added to the plate at 100 μL/well. The plate was incubated 1 hour at room temperature followed by washing with PBST four times. The TMB substrate solution was added 100 μL/well. The color was permitted to develop for 15 minutes and then 100 μL/well 2N H2SO4 was added to terminate the reaction. Absorbance at 450 nm and 620 nm was determined by a Tecan F200 Pro reader.

[3] = target: T3, recombinant human CD137 receptor protein (human, UniProt Q07011 24-186); test: ELISA, huCD137 coated, clone 3712 titrated; full sigmoid, plateau about 1.5
T3 construct: Coated on ELISA plates; also called recombinant human CD137 protein
Description: as §3

CD137 protein = target: T4, CD137 protein (UniProt Q07011 24-186, limits assumed); test: competition ELISA with CD137L: CD137 receptor coated, antibody titrated, CD137L added; A450-A620 falls from about 1.25 to about 0.64 (midpoint of an inhibition curve, called EC50 in the sheet's table)
T4 construct: also called CD137 antigen; CD137 receptor
Description: CD137 receptor was diluted in DPBS to 1 μg/mL, and then coated onto an ELISA plate (Corning, Catalog number: 9018, high binding) with a volume of 50 μL (0.05 μg) per well, and incubated at 4° C. overnight. The plate was decanted and washed once; assay diluent was added 200 μL/well. […] The diluted CD137 receptor was added to the assay plate, 50 μL/well, in duplicate. The plate was incubated one hour at room temperature. […] The plate was incubated one hour at room temperature and then washed three times with PBST. Goat anti-human IgG-H+L HRP conjugated at 1:100,000 20 dilution was added to the plate at 100 μL/well. The plate was then incubated one hour at room temperature followed by washing with PBST four times. The TMB substrate solution was added at 100 μL/well. The color was allowed to develop for 15 minutes, and was stopped with 100 μL/well 2N H2SO4. Absorbance at 450 nm and 620 nm was determined by a Tecan F200 Pro reader.

[4] = target: T5, recombinant cynomolgus monkey CD137 receptor protein (cynomolgus monkey, UniProt A9YYE7 24-186); test: ELISA, cynomolgus CD137 protein coated; average, n=6
T5 construct: Coated on ELISA plates; also called Cyno CD137
Description: The human or cynomolgus monkey CD137 receptor protein was diluted in DPBS to 1 μg/mL, and then coated onto an ELISA plate (Corning, Catalog number: 9018, high binding) with a volume of 100 μL (0.1 μg) or 50 μL (0.05 μg) per well, and incubated at 4° C. overnight. The plate was decanted and washed once; assay diluent was added 200 μL/well. After a one-hour incubation at room temperature, the plate was washed with PBST one time. […] The plate was incubated one hour at room temperature and then washed three times with PBST. Goat anti-human IgG-H+L HRP conjugated at 1:100,000 dilution was added to the plate at 100 μL/well. The plate was then incubated one hour at room temperature followed by washing with PBST four times. The TMB substrate solution was added at 100 μL/well. The color was allowed to develop for 15 minutes, and was stopped with 100 μL/well 2N H₂SO₄. Absorbance at 450 nm and 620 nm was determined by a Tecan F200 Pro reader.
Graphpad 7.0, “[Agonist] vs. response—Variable slope (four parameters)” was used to plot the binding data and calculate binding EC₅₀ values.

- EC50 [1]: ~0.3 nM
- EC50 [2]: 0.26 nM and 0.0369 µg/mL
- EC50 (Ly050): 0.0722 µg/mL
- EC50 [3]: 0.0495 µg/mL
- IC50 (CD137 protein): 0.0643 µg/mL
- EC50 [4]: 0.33 nM and 0.0474 µg/mL
B1: Clone 3712-IgG1v (IgG1v/kappa) (antibody)
heavy: QVQLVQSGAEVKKPGASVKVSCKASGYTFAGFEMHWVRQAPGQGLEWMGAIDPKTGGTDYNQKFKDRVTMTRDTSISTAYMELSRLRSDDTAVYYCARDLGYFDVWGQGTLVTVSSASTKGPSVFPLAPSSKSTSGGTAALGCLVKDYFPEPVTVSWNSGALTSGVHTFPAVLQSSGLYSLSSVVTVPSSSLGTQTYICNVNHKPSNTKVDKKVEPKSCDKTHTCPPCPAPELLGPSVFLFPPKPKDTLMISRTPEVTCVVVDVEHEDPEVKFNWYVDGVEVHNAKTKPREEQYNSTYRVVSVLTVLHQDWLNGKEYKCKVSNKALPAPIEKTISKAKGQPREPQVYTLPPSREEMTKNQVSLTCLVKGFYPSDIAVEWESNGQPENNYKTTPPVLDSDGSFFLYSKLTVDKSRWQQGNVFSCSVMHEALHNHYTQKSLSLSPGK
light: DIQMTQSPSSLSASVGDRVTITCRASQDIRSNLNWYQQKPGGAVKLLIYYTSRLHSGVPSRFSGSGSGTDYTLTISSLQPEDFATYFCQQSEKLPRTFGGGTKVEIRRTVAAPSVFIFPPSDEQLKSGTASVVCLLNNFYPREAKVQWKVDNALQSGNSQESVTEQDSKDSTYSLSSTLTLSKADYEKHKVYACEVTHQGLSSPVTKSFNRGEC
notes: copies: 2 + 2
